The target of experiment [1] is endogenous beta-catenin (HEK293 cells) (human) (UniProt P35222). The experiment is described as follows: cell-based or functional assay.
For experiment [2], the target named is T1, recombinant full-length human beta-catenin (human, UniProt P35222 2-781, biotinylated in the ELISA and SPR assays (sites not given); not biotinylated on the Western blots).
T1 construct: Tags are not described; also called β-catenin; biotinylated beta-catenin
T1 sequence: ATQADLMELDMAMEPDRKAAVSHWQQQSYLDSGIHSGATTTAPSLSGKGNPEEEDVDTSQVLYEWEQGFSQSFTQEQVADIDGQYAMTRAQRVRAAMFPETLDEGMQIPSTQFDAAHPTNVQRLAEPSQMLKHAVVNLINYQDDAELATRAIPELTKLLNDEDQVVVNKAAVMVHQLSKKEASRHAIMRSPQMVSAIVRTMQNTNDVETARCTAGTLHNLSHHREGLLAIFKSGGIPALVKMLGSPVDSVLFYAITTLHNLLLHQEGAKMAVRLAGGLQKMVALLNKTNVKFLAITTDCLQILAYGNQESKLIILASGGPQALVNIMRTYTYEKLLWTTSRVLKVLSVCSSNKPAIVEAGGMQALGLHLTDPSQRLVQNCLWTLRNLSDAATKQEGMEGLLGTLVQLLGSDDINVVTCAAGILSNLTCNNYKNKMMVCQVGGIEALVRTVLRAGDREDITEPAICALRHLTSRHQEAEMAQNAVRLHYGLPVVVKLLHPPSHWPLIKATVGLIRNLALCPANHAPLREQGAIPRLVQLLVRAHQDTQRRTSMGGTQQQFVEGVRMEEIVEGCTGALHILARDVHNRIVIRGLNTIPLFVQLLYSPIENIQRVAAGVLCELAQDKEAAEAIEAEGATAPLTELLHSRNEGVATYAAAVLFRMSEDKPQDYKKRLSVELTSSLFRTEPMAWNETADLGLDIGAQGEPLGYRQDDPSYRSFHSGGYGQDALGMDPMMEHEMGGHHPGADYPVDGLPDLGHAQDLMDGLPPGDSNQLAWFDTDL
The experiment in a line: ELISA on captured biotinylated beta-catenin.

For experiment [3], the target named is T1, recombinant full-length human …. The experiment is described as follows: SPR (Biacore T100), biotinylated beta-catenin captured on streptavidin, VHH-scFc in solution. As to the method:
SPR-Affinity measurements: Affinity measurements were performed using a Biacore™T100. Streptavidin was immobilised onto the carboxymethylated dextran coated gold surface of a CM5 sensor chip using amine coupling chemistry, as per manufacture's instructions. The concentrations of streptavidin used in flow cells 1˜4 respectively were 0 μg/mL, 5 μg/mL, 15 μg/mL, 45 μg/mL in 10 mM NaOAc pH5. Biotinylated beta-catenin was then captured on flow cells 2-4 whilst flow cell 1 was the control reference cell. Samples of VHH-scFc at 1 in 2, 1 in 5, 1 in 10, 1 in 20 and 1 in 40 dilutions in HBS-EP were passed over all flow cells for 5 minutes at 30 μL/minute. Buffer blanks were run between every sample set and control transfection supernatant samples were included in each run. Between each sample the chip was regenerated by the addition of 30 μL of 2M guanidine hydrochloride followed by 30 μL of 40 mM HCl. Affinity constants were determined by the fitting of resulting data using BiaEvalution software with a Langmuir 1:1 association method, associations were rejected if the Chi2 value was greater than 1; if the residual data points were not randomly distributed or if the residuals were greater than +/−2 RU. The association data were plotted for the most dilute samples which still gave a RU capture response of at least 40RU. A minimum of four different combinations of dilutions and different beta-catenin coated flow cells were used to calculate association ‘on-rate’ (ka) or dissociation data ‘off-rate’ (kd), and used to calculate KD=kd/ka.

Experiment [4] shares this target. The experiment in a line: Western blot of reduced recombinant beta-catenin on PVDF, probed with IBV1.CDRAAA-scFc transient supernatant at 16 nM, detected with anti-mouse Fc HRP. The protocol: FIG. 5: Reducing anti-beta-catenin Western blots probed by the intrabodies. Gel A:) IBV1-scFc (23 nM), Gel B: IBV2-scFc (110 nM), Gel C: IBV3-scFc (85 nM) and Gel D: IBV1.CDRAAA-scFc (16 nM) transient supernatants. Any binding was detected with t anti-mouse Fc HRP antibody. In each gel, Lane 1) 15 ng beta-catenin, Lane 2) 7.5 ng beta-catenin, Lane 3) 3.75 ng beta-catenin.
The presence of beta-catenin was successfully detected by all three parent VHHs and not by the control mutant IBV1.CDRAAA.

Experiment [5] has the same target. The experiment in a line: ELISA: biotinylated beta-catenin captured on streptavidin plates, VHH-scFc in half-log dilutions from 32 nM, anti-mouse Fc HRP, delta OD 630/490 nm [lower panel]. As to the method: FIG. 6: beta-catenin binding ELISA results for parent VHHs and CDR3 mutants. […] The plates were read at 630 and 490 nm and ΔOD recorded. The negative control is a ‘no DNA’ control transfection culture supernatant.
Beta-catenin binding ELISA: ELISA plates were coated with streptavidin ([…]). Biotinylated beta-catenin (1 mg/mL) was added in PBS, for 30 minutes. Blocked samples were added (phage samples or transient VHHscFc samples). After an hour, bound samples were detected using a suitable antibody at 1 in 5,000 dilution in PBS (containing 3% BSA). Detection antibodies were goat anti-M13-HRP (GE Healthcare) or goat anti-mouse Fc HRP (Jackson ImmunoResearch).
The binding of the parent intrabodies and CDR3 mutants to recombinant β-catenin was also tested by ELISA. […] IBV1.CDRAAA and IBS.CDRAAA also appeared to be suitable CDR3 mutant controls for their respective parent except for their lower expression levels within the bioassay. This is not uncommon in conventional antibody expression and single point mutations in antibody CDRs leading to over a 100-fold reduction in expression have been previously reported.

B1: intrabody V1 (VHH expressed intracellularly) (VHH, not shown: small tags and cut ends)
VHH: QVQLVQSGGGLVQPGGSLRLSCAASGSISSNNVMGWYRQGPGKQREFVASITDSDLANYAASVKGRFTISRDNAKNTVNLQMNSLRPEDTDVYYCRLTMMTYPPTISWGQGTQVTVSS
Turning to B1, in experiment [1], the firefly luciferase activity signal, PPSP-stimulated HEK293 TCF/LEF reporter bioassay (% of control VHH signal) is under 25.

B2: IBV1-scFc (Fc fusion, not shown: a dimerising Fc or GST; large carriers; small tags and cut ends)
VHH: QVQLVQSGGGLVQPGGSLRLSCAASGSISSNNVMGWYRQGPGKQREFVASITDSDLANYAASVKGRFTISRDNAKNTVNLQMNSLRPEDTDVYYCRLTMMTYPPTISWGQGTQVTVSS
notes: Single chain mouse IgG Fc construct, used as transient HEK293 supernatant; also called VH-V1; VHH-scFc of V1
Consider B2, for which, in experiment [2], the Kd was under 10 nM. For the same molecule, in experiment [3], the Kd was determined as 6.49 nM, the koff amounted to 0.000163 s⁻¹ and the kon was 25100 M⁻¹ s⁻¹.

B3: intrabody V2 (VHH expressed intracellularly) (VHH, not shown: small tags and cut ends)
VHH: QVQLVQSGGGLVQPGGSLRLSCAASGSISSNNVMGWYRQGPGKQREFVASITDSDLANYAASVKGRFTISRDNAKNTVNLQMNSLRPEDTDVYYCRLTMMTYPPIISWGQGTQVTVSS
Turning to B3, the firefly luciferase activity signal, PPSP-stimulated HEK293 TCF/LEF reporter bioassay (% of control VHH signal) in experiment [1] was under 25.

B4: intrabody V3 (VHH expressed intracellularly) (VHH, not shown: small tags and cut ends)
VHH: QVQLVESGGGLVQPGGSLRLSCAASGTISSNNVMGWYRQGPGKQREFVASVTDSDLANYAASVKGRFTISRDNAKNTVNLQMNSLRPEDTGVYYCRLTIMTYPPTISWGQGTQVTVSS
The molecule B4 yielded a firefly luciferase activity signal, PPSP-stimulated HEK293 TCF/LEF reporter bioassay (% of control VHH signal) in experiment [1] of under 25.

B5: IBV1.CDRAAA-scFc (Fc fusion, not shown: a dimerising Fc or GST; small tags and cut ends)
VHH: QVQLVQSGGGLVQPGGSLRLSCAASGSISSNNVMGWYRQGPGKQREFVASITDSDLANYAASVKGRFTISRDNAKNTVNLQMNSLRPEDTDVYYCRLTMMTAAATISWGQGTQVTVSS
notes: CDR3 mutant control of V1 in the VHH-scFc format; also called VH-V1.CDRAAA
B5: the binding result in experiment [4] is recorded as “no binding (tested: 16 nM)”.

B6: IBV2-scFc (Fc fusion, not shown: a dimerising Fc or GST; large carriers; small tags and cut ends)
VHH: QVQLVQSGGGLVQPGGSLRLSCAASGSISSNNVMGWYRQGPGKQREFVASITDSDLANYAASVKGRFTISRDNAKNTVNLQMNSLRPEDTDVYYCRLTMMTYPPIISWGQGTQVTVSS
notes: Single chain mouse IgG Fc construct, used as transient HEK293 supernatant; also called VH-V2
Take B6: in experiment [2], the Kd is under 10 nM. In experiment [3], the Kd came to 4.47 nM, the koff turned out to be 0.000165 s⁻¹ and the kon amounted to 36900 M⁻¹ s⁻¹.

B7: IBV3-scFc (Fc fusion, not shown: a dimerising Fc or GST; large carriers; small tags and cut ends)
VHH: QVQLVESGGGLVQPGGSLRLSCAASGTISSNNVMGWYRQGPGKQREFVASVTDSDLANYAASVKGRFTISRDNAKNTVNLQMNSLRPEDTGVYYCRLTIMTYPPTISWGQGTQVTVSS
notes: Single chain mouse IgG Fc construct, used as transient HEK293 supernatant; also called VH-V3
In the case of B7, the Kd in experiment [2] was under 10 nM. Moreover, in experiment [3], the Kd is 4.38 nM, the koff amounted to 0.000169 s⁻¹ and the kon amounted to 38500 M⁻¹ s⁻¹.

B8: intrabody O (VHH expressed intracellularly) (VHH, not shown: small tags and cut ends)
VHH: QVQLVQSGGGLVQAGDSLRLACAASEGTFRTNVMGWFRQAPGKEREFVAAISWSGGITHYSNSVKGRFAISRDNAKNTVYLQMNSLKPEDTAVYYCAADPSTTPWNLRVRVNEYEYWGQGTQVTVSS
In experiment [1], B8 came in with a firefly luciferase activity signal, PPSP-stimulated HEK293 TCF/LEF reporter bioassay (% of control VHH signal) of under 25; an inhibition of beta-catenin co-transcriptional activity, HEK293 bioassay stimulated with LiCl2, against IBO.CDRAAA (1) of 65%; an inhibition of beta-catenin co-transcriptional activity, HEK293 bioassay stimulated with Wnt3a-conditioned media, against IBO.CDRAAA (1) of 66%; a percentage inhibition of firefly luciferase production in the bioassay, IBO against IBO.CDRAAA (1) of 83%.

B9: IBO-scFc (Fc fusion, not shown: a dimerising Fc or GST; large carriers; small tags and cut ends)
VHH: QVQLVQSGGGLVQAGDSLRLACAASEGTFRTNVMGWFRQAPGKEREFVAAISWSGGITHYSNSVKGRFAISRDNAKNTVYLQMNSLKPEDTAVYYCAADPSTTPWNLRVRVNEYEYWGQGTQVTVSS
notes: Single chain mouse IgG Fc construct; It is placed under this molecule; also called VH-O; biotinylated-'O'
Regarding B9, the Kd in experiment [2] was under 10 nM. Besides, in experiment [3], the Kd came out at 3.65 nM, the koff worked out at 0.00026 s⁻¹ and the kon came out at 71100 M⁻¹ s⁻¹.

B10: IBO.CDRAAA (1)-scFc (Fc fusion, not shown: a dimerising Fc or GST; small tags and cut ends)
VHH: QVQLVQSGGGLVQAGDSLRLACAASEGTFRTNVMGWFRQAPGKEREFVAAISWSGGITHYSNSVKGRFAISRDNAKNTVYLQMNSLKPEDTAVYYCAADPSTTAAALRVRVNEYEYWGQGTQVTVSS
notes: CDR3 mutant control of O in the VHH-scFc format; also called VH-O.CDRAAA(1)
For B10, in experiment [5], the binding result is “no binding (tested: 32 nM)”.

B11: IBO.CDRAAA (2)-scFc (Fc fusion, not shown: a dimerising Fc or GST; small tags and cut ends)
VHH: QVQLVQSGGGLVQAGDSLRLACAASEGTFRTNVMGWFRQAPGKEREFVAAISWSGGITHYSNSVKGRFAISRDNAKNTVYLQMNSLKPEDTAVYYCAADPSTTPWNLAAAVNEYEYWGQGTQVTVSS
notes: CDR3 mutant of O in the VHH-scFc format; also called VH-O.CDRAAA(2)
Regarding B11, in experiment [5], the binding result is given as “binds”.

B12: intrabody S (VHH expressed intracellularly) (VHH, not shown: small tags and cut ends)
VHH: QVQLVESGGGLVQAGGSLRLSCAASGVSFSRTSLGWFRQAPGKEREFVSVISWIGGTTYYADSLKGRFTISRDNAKSTVYLQMNSLKPEDTALYYCAISNGVLPRTEGAFASWGQGTQVTVSS
B12 displayed a firefly luciferase activity signal, PPSP-stimulated HEK293 TCF/LEF reporter bioassay (% of control VHH signal) in experiment [1] of under 25.

B13: IBS-scFc (Fc fusion, not shown: a dimerising Fc or GST; large carriers; small tags and cut ends)
VHH: QVQLVESGGGLVQAGGSLRLSCAASGVSFSRTSLGWFRQAPGKEREFVSVISWIGGTTYYADSLKGRFTISRDNAKSTVYLQMNSLKPEDTALYYCAISNGVLPRTEGAFASWGQGTQVTVSS
notes: Single chain mouse IgG Fc construct, used as transient HEK293 supernatant; also called VH-S
Turning to B13, in experiment [2], the Kd was under 10 nM. Moreover, in experiment [3], the Kd turned out to be 3.78 nM, the koff amounted to 0.000248 s⁻¹ and the kon came out at 65600 M⁻¹ s⁻¹.

B14: IBS.CDRAAA-scFc (Fc fusion, not shown: a dimerising Fc or GST; small tags and cut ends)
VHH: QVQLVQSGGGLVQAGGSLRLSCAASGVSFSRTSLGWFRQAPGKEREFVSVISWIGGTTYYADSLKGRFTISRDNAKSTVYLQMNSLKPEDTALYYCAISNGVLPATAGAAASWGQGTQVTVSS
notes: CDR3 mutant control of S in the VHH-scFc format; also called VH-S.CDRAAA
Take B14: in experiment [5], the binding result is reported as “no binding (tested: 32 nM)”.

The record behind these values is patent US20260167713A1 (UCB, published 2026).
